Measured values from paper PMC6329447.

How the values were obtained:
[1] = biological target: zebrafish Olig1, mammalian two-hybrid fusion (zebrafish); assay: two-hybrid
[2] = biological target: zebrafish Olig2, mammalian two-hybrid fusion (zebrafish); assay: two-hybrid
Sox10 [3] = biological target: T1, Sox10 (Danio rerio (zebrafish), UniProt Q90XD1 1-485); assay: EMSA
Olig1 [4] = biological target: T2, Olig1 (Danio rerio (zebrafish), UniProt Q5QJR2 1-235); assay: EMSA
T2 sequence: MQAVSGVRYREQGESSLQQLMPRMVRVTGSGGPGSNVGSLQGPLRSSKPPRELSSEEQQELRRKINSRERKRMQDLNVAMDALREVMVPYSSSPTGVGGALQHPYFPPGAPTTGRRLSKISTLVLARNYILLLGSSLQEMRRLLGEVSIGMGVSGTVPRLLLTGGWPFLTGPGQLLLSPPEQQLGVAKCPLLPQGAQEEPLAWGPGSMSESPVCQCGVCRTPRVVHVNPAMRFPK

Sox10 [5] = biological target: T1, Sox10; assay: competition
Olig1 [6] = biological target: T2, Olig1; assay: competition

## zebrafish Olig1, mammalian two-hybrid fusion (natural protein)
[1]
  fold increase of luciferase activity: 8 fold
[2]
  fold increase of luciferase activity: 8 fold

B1: EbS2 (dsDNA)
DNA 1: CAAGTCGGGGCAGATGTGGACTAGAACAATAGCAGCTCC
DNA 2: GGAGCTGCTATTGTTCTAGTCCACATCTGCCCCGACTTG
Sox10 [3]
  binding result: binds
Olig1 [4]
  binding result: binds

B2: EbS2mut (dsDNA)
DNA 1: CAAGTCGGGGCAGATGTGGACTAGGCCGCTAGCAGCTCC
DNA 2: GGAGCTGCTAGCGGCCTAGTCCACATCTGCCCCGACTTG
Sox10 [5]
  binding result: no binding

B3: EbmutS2 (dsDNA)
DNA 1: CAAGTCGGGGTTGTAATGGACTAGAACAATAGCAGCTCC
DNA 2: GGAGCTGCTATTGTTCTAGTCCATTACAACCCCGACTTG
Olig1 [6]
  binding result: no binding
